Laboratory results as given in paper PMC12331169, “Structural and functional studies of rabbit SAMD9 reveal a distinct tRNase module that underlies the antiviral activity”.

Biological target: T1, rSAMD9 158-389 (tRNase domain) (Oryctolagus cuniculus (European rabbit; …, UniProt G1U2M9 158-389)
T1 sequence: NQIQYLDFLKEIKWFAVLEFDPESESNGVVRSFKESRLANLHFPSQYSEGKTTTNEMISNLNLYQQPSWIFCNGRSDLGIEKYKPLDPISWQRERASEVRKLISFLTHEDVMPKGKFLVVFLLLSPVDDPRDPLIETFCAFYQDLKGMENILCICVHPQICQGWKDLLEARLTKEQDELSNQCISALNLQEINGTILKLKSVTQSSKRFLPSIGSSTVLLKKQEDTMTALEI
Test: EMSA; stable complex predominant at 2:1 protein:dsDNA; no DNA density seen in the crystal; EMSA on 0.8% native agarose gel, EtBr then Coomassie stain; buffer, salt, pH and temperature not given (as in earlier paper)
Conditions: protein: recombinant; tags: 6xHis-SUMO removed by Ulp1; chain copies: 2; blunt

B1: 26-nt dsDNA (dsDNA)
DNA 1: TATTCAAATTAATGATTTATTCAATT
DNA 2: AATTGAATAAATCATTAATTTGAATA
binding result: binds
